In paper PMC5812564:
Values belong to the substance of their own block, whether it stands above or below them.

Legend:
RAGE V domain = RAGE V domain (UniProt Q15109)
S100A1 (human) [1] = assay: other fluorescence titration; intrinsic tryptophan fluorescence of 3.50 μM S100A1, S100B added from 0 to 42 μM in steps of 2 μM; excitation 295 nm, emission read at 351 nm
S100A1 (human) [2] = assay: NMR titration; 1H-15N HSQC, 15N-labelled protein with the unlabelled partner added, each pair in both directions, molar ratios 1:0 and 1:1 (1:0.66 and 1:1 for Kd); 25 °C; 20 mM Tris, 5 mM CaCl2, 5 mM DTT, 50 mM (NH4)2SO4, pH 7.2; Kd as the mean over selected residues
[3] = molecular target: S100A1 as used in the titrations with the RAGE V domain (mutant-S100A1 (C85S) by the introduction) (human); assay: as above

Sequence of RAGE V domain (Q15109 24-128): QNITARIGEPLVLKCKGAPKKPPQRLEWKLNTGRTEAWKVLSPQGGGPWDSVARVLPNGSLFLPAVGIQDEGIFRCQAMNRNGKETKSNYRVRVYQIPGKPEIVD

Substance: S100A1 (natural protein)
WST-1 proliferation assay, serum-starved SW480 cells (RAGE highly expressed) treated for 48 h with 10, 50 and 100 nM S100A1; viable cell count against the serum-free control (RAGE V domain): 1.53 fold
WST-1 proliferation assay, serum-starved SW480 cells treated for 48 h with 100 nM S100A1 and 100 nM S100B; viable cell count against the serum-free control (RAGE V domain): 1.39 fold

Kd (S100A1 (human) [1]): 1.9 µM
Kd (S100A1 (human) [2]): 5.9 µM
Substance: S100B (natural protein)

Kd [3]: 6.13 µM
Substance: RAGE V domain (from UniProt Q15109 24-128) (domain or fragment)
